Measurements taken from paper PMC2562019.
Where two headings read alike, the source gives them in different places.

Legend:
[1] = target: Recombinant HGF receptor (c-met)/fc chimera (UniProt P08581); assay: SPR; Biacore 2000, 25°C; c-Met/Fc chimera amine-coupled to a CM5 chip; supernatant of buffy coat (before or after haemolysis by freezing) or serum of one donor, diluted 1:20 in PBS pH 7.4
[2] = target: Recombinant HGF receptor (c-met)/fc chimera (UniProt P08581); assay: SPR; Biacore 2000, 25°C; c-Met/Fc chimera amine-coupled to a CM5 chip; medium conditioned by a healthy donor's blood (endogenous HGF, positive control) injected
[3] = target: Recombinant HGF receptor (c-met)/fc chimera (UniProt P08581); assay: as above; remark: listed apart in the source
[4] = target: Recombinant HGF receptor (c-met)/fc chimera (UniProt P08581); assay: SPR; Biacore 2000, 25°C; c-Met/Fc chimera amine-coupled (EDC/NHS) to a CM5 chip (22113 or 22377 RU); reconstituted rHGF injected at the stated concentrations; response read after the end of the injection (dissociation phase)

UniProt P08581, sequence (P08581 25-932, change not shown): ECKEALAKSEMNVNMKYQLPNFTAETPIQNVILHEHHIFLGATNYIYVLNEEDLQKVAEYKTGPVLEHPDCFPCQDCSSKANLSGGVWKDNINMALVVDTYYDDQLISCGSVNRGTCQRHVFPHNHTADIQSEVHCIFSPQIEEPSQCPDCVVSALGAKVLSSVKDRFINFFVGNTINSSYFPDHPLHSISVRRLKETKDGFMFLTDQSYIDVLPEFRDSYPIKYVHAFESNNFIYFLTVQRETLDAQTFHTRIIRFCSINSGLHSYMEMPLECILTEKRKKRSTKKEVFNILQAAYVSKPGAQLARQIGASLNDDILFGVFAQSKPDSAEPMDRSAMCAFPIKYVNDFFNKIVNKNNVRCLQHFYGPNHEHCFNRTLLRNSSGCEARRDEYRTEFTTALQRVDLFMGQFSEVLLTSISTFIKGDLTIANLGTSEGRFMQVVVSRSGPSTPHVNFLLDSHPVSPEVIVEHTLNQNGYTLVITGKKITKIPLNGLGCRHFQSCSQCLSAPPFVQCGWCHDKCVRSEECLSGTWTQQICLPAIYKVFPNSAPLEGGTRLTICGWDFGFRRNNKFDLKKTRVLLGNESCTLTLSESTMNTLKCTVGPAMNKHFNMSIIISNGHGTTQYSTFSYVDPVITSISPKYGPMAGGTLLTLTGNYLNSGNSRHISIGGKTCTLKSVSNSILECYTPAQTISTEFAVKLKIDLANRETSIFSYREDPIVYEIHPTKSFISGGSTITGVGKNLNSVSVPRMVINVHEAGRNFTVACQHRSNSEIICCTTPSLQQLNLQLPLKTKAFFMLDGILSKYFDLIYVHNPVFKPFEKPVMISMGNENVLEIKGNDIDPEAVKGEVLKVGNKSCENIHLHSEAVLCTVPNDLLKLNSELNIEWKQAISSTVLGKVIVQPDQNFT

## Endogenous HGF from human blood (ligand)
[1]
  SPR response, buffy coat supernatant 1:20: 247 RU
  SPR response, haemolysed buffy coat 1:20: 163 RU
  SPR response, serum 1:20: 317 RU
[2]
  SPR response: 403 RU
[3]
  SPR response: 209 RU

## Recombinant HGF, R&D carrier-free, lot GJ174034 (from UniProt P14210 32-728) (ligand)
[4]
  SPR response at 2.5 μg/ml after 15 h at room temperature: 181 RU
  SPR response at 2.5 μg/ml after 15 h at −20°C and thawing: 94 RU
  SPR response at 2.5 μg/ml, freshly reconstituted: 194 RU

## Recombinant human hepatocyte growth factor, lot GJ175031 (from UniProt P14210 32-728) (ligand)
[4]
  SPR response at 0.8 μg/ml: 120 RU
  SPR response at 4 μg/ml: 201 RU
  SPR response at 5 μg/ml: 265 RU
